# Entries after “also recorded” stand apart in the source; their conditions may differ.
# Legend:
# [1] = system: U2OS cells; assay: RPA foci quantification in U2OS cells; format: cell-based, human
# Description: After two days cells, cells were prepared for imaging as in Murkherjee et al 2015. Cytoplasm was extracted via two sequential 10 minute washes on ice consisting of Extraction Buffer 1: 10 mM PIPES, pH 7.0; 100 mM NaCl; 300 mM Sucrose; 3 mM MgCl2; 1 mM EGTA, 0.5% Triton X-100 and Extraction Buffer 2: 10 mM Tris-HCl, pH 7.5; 10 mM NaCl; 3 mM MgCl2, 1% Tween 40, 0.5% sodium deoxycholate. Cells were then fixed using 4% PFA for 20 minutes at RT, then washed three times with PBST, blocked in 5% goat-serum for 30 minutes at RT, then incubated overnight at 4° C. with 1:1000 dilution of mouse anti-RPA (Calbiochem; Catalog no: NA191). Next day cells were washed 5× with PBST with 20 minutes per wash, then incubated overnight at 4° C. with a 1:1000 dilution of anti-mouse Alexa fluor 568 (Thermo Fisher). Cells were washed next day cells were washed 5× with PBST with 20 minutes per wash, then mounted in Vectashield with DAPI (Vector Labs; Catalog no: H-1200), and imaged at 10× using an Leica Stellaris Confocal Microscope. Foci per cell were quantified using a custom script to identify number of RPA foci per cell. […] After two days cells were fixed, then cytoplasm extracted on ice, then remaining nuclei were stained for RPA. At the end of staining, nuclei were labeled with DAPI and cells were imaged via confocal microscopy. Post-imaging nuclei identification and RPA thresholding allowed quantification of the number of RPA foci per nuclei.
# [2] = system: CHO-SHS-1.2; assay: CHO cell Cas9-HR8 stable knock-in, anti-Cas9 western blot; format: cell-based; details: CHO cells; CHO-SHS-1.2-G1; Puromycin 10 days, then 12 days without
# Description: CHO-Freestyle Cells (Invitrogen) were grown to ˜70% confluency, after which were transfected using the Neon (Thermo) transfection system and 250 ng of Cas9-HR8, 250 ng of either CHO-SHS-1.2-G1, and 50 ng CHO-SHS-1.2-pCAG-Cas9-HR8-IRES-PuroR RT. Cells were allowed to recover for two days, then treated with […] Puromycin for 10 days, after which Puromycin selection was removed. Cells were grown for an additional 12 days, after which cells split and half were frozen, while the other half was treated with RIPA buffer (Santa-Cruz) to extract protein, with non-transfected control CHO cells protein also extracted via RIPA buffer. Lysate was normalized and 7.5 ug total protein was loaded onto a 4-12% Bis-Tris Acrylamide gel (Invitrogen), and transferred to nitrocellulose using BioRad blotting and transfer system (BioRad). Membrane was washed 3× with 1×PBST (BioRad), blocked for 10 minutes using EveryBlot blocking solution (BioRad), and incubated for 1 hr at RT with a 1:1000 dilution of mouse anti-Cas9 (SantaCruz). Membrane was washed 5× for 5 minutes each in PBST, then incubated for an hour with 1:1000 rabbit anti-mouse-HRP secondary antibody for 1 hr at RT. Membrane was then washed 5× for 5 minutes each in PBST, after which a 1× NC/DAB (ThermoFisher) solution was used to visualize bands. FIG. 22A illustrates an exemplary diagram showing CHO cell Cas9-HR8 stable knock-in protocol. […]
# [3] = system: HBB amplicon; assay: In-vitro exonuclease assay with purified proteins; format: biochemical, human; details: 30 nM protein, 3 nM HBB amplicon, 37° C., 60 minutes
# Description: Reactions were then electrophoresed and visualized on an agarose gel. FIG. 5C illustrates quantification of exonuclease activity. Quantification of exonuclease activity assayed in FIG. 5B. 3 replicates were performed for each reaction and were quantified via FIJI (ImageJ) and then normalized to control amplicon levels.
# Reactions were then electrophoresed and visualized on an agarose gel.
# DNA was isolated from wildtype K562 cells, and amplified using standard Taq DNA polymerase and HBB-out-F (5′-[…]-3′ (SEQ ID NO: 125)) and HBB-out-R (5′-[…]-3′ (SEQ ID NO: 126)), Tm=56 for 35 cycles, and purified using the Qiagen PCR cleanup kit. […] The samples were then electrophoresed on a standard 1% TAE agarose gel stained with gel green.
# [4] = system: H1299 cells; assay: Cellular viability of transfected H1299 cells (resazurin assay); format: cell-based, human; details: for cellular viability compared to RLucRT alone: H1299 cells, AAVS1 G1 or G2 plus RLucRT, two days
# From the text: Next the viability of transfected cells was quantified via resazurin after two days, then cells were washed with PBS, then lysed and luminescence quantified via plate reader (FIG. 4B). […] Next Luminescence was quantified via the Renilla-Glo Luciferase Assay System (Promega) using a 96 well plate reader with luminescence capabilities (Tecan). After data collection, raw luminescence was background subtracted from non-transfected control cells, corrected for cellular viability, and plotted in FIG. 4D.
# Unless otherwise noted, adherent cells (A549 or H1299) were seeded in 96 well plates and grown in either 50/50 F-12/DMEM or RPMI-1640 respectively, supplemented with 5% FBS and grown to roughly 70% confluency. Cells were then transfected with either Cal-Phos as described in Chen 2012 or Lipofectamine 3000 (Thermofisher). Fresh media was exchanged the next day and cellular viability was quantified on day 2.
# 20 μL of 0.15 mg/mL Resazurin solution was added to cells either plated in 96 well plates for all cell lines, which were then incubated for ˜4 hours at 37° C. Cellular toxicity was quantified using a Tecan SpectraFlour Plus plate reader (Tecan) using a 535/595 filter set. Raw data was then normalized to the mean of the untransfected controls and plotted as described.
# After two days, cellular viability was quantified via Resazurin, then washed with PBS and lysed with 25 μL of cell lysis buffer, and luciferase activity was quantified via Renilla Luciferase Assay (Promega) and using a Tecan Infinite Mplex plate reader.
# [5] = system: AAVS1; assay: RLucRT HDR assay in A549 cells; format: cell-based, human; details: G1
# [6] = SHS-231, hH2B-G4 or B-Catenin1, vs non-treated control cells
substance,measurement,setting,value
Cas9-HR 8: hExo1(1-352)-Cas9 fusion of FIG. 1A; E. coli codon optimized vectors SEQ ID NO: 68 and 69,percent cells with 1-10 RPA foci,[1]; [6],increased the percentage of cells with RPA foci
same,percent cells with any RPA foci,[1]; [6],increased the percentage of cells with RPA foci
same,percent cells with 11-100 RPA foci compared to Cas9,[1]; targeting hH2B and Beta-Catenin1,significant decrease in cells with 11-100 RPA foci
same,"stable knock-in of Cas9-HR8 repair template (over 8 kb), anti-Cas9 western blot",[2],stably integrated Cas9-HR8
same,exonuclease activity (reduction of full length HBB amplicon),[3],significant reduction in the full length HBB amplicon; also recorded: significant exonuclease activity
same,toxicity in H1299 cells compared to A549,"[4]; H1299 cells (lack functional p53 gene), H2B-G4 guide",small reduction
same,cellular viability compared to RLucRT alone,[4],slightly reduced
same,cellular viability compared to RLucRT alone,[4]; listed as Cas9-HR8,no gross changes in cellular viability
same,HDR rates compared to Cas9 (normalized luminescence),[5],~2.5 ×
